# Data reported in publication PMC5415192, “Zebrafish GDNF and its co-receptor GFRα1 activate the human RET receptor and promote the survival of dopaminergic neurons in vitro” (PLoS ONE, 2017).
# B1: Zebrafish (Danio rerio) RET extracellular domain (residues 22-626) (domain or fragment, UniProt A8E7C6 22-626, looked up)
# chain: GLYFPQRLYTENIYVGQQQGSPLLQVISMREFPTERPYFFLCSHRDAFTSWFHIDEASGVLYLNKTLEWSDFSSLRSGSVRSPKDLTLKVGVSSTPPMKVMCTILPTVEVKLSFINDTAPSCGQVELSTLCFPEKISNPHITENREPGALRQLRRFTHMSICPNYTISYGVVAGSSVPFAVDDSTSELVVTAQVDREEKEVYHLDIVCMVRTERNLEEVFRSLHVNIYDEDDNSPYVNGTDTEDVLVEFDRSEGTVFGTLFVYDRDTTPVYPTNQVQNKLVGTLMTNDSWIKNNFAIEHKFREEKAIFGNVRGTVHEYKLKLSQNLSVTEQRSFLLGYLVNDTTFPGPEGTVLLHFNVTVLPVPIRFSNVTYSFTVSQKATTYSQIGKVCVENCQKFKGIDVTYQLEIVDRNITAEAQSCYWAVSLAQNPNDNTGVLYVNDTKVLRRPECQELEYVVIAQEQQNKLQAKTQLTVSFQGEADSLKTDEPRFPACAEKRQRGDCEATRGLGAPTGRCQWRQGRDKGISKRYSTCSPNLGTCPDGYCDAIESKNISICPQDCSSEAIIGGYERDLYGIKAGHGTCYCFEGKCFCERDEPEDDICNDMC
# notes: RET, Danio rerio, UniProt A8E7C6, extracellular domain, residues 22-626; cloned from zRET-CS2-MT+; The protein is glycosylated; also called zRET^ecd; zRET; source: Hi5 insect cells, baculovirus, secreted
# Key:
# [1] = biological target: B1; test: BLI; BLItz; His-tagged zGFRα1 (58 μM, 4 μl) immobilised on Ni-NTA tips; pre-mixed zRET^ecd and zGDNF at 0.3-44 μM; 20 mM HEPES pH 8, 150 mM NaCl, 1 mM CaCl2; plateau values fitted as Scatchard plots; triplicate; conditions: both partners purified
# [2] = biological target: the molecule itself; test: SDS-PAGE with and without DTT; purified zGDNF on a Coomassie-stained gel, with 1 mM DTT or without
# [3] = biological target: the molecule itself; test: SEC + native gel or EMSA; affinity-purified zRET^ecd separated by SEC into two peaks; fractions and pools run on BN-PAGE and SDS-PAGE
binder,measurement,setting,value
"Complex of His-tagged zebrafish GFRα1 (residues 31-351) and zebrafish GDNF (complex, zebrafish (Danio rerio), GDNF family receptor alpha-1, Danio rerio, UniProt Q98TT9, residues 31-351, lacking the GPI-anchor; Glial cell line-derived neurotrophic factor, Danio rerio, UniProt Q98TU0, mature GDNF, residues 90-236; as m6; In the BLI experiment His-tagged zGFRα1 was held on the Ni-NTA tip, and zGDNF was supplied pre-mixed with zRET^ecd; The stoichiometry of the complex was not measured here; also called …) chain 1: DCVKANELCLKEPGCSSKYRTMRQCVAGRESNFSMATGMEAKDECRLVLDALKQSPLYNCRCKRGMKKEKNCLRIYWGIYQHLQGNDLLEDSPYEPVNSRLSDIFRLAPIYSGEPALAKENNCLNAAKACNLNDTCKKYRSAYISPCTSRVSTAEVCNKRKCHKALRQFFDKVPPKHSYGMLYCSCPLGDQSACSERRRQTIVPACSYEDKERPNCLTLQVSCKTNYICRSRLADFFTNCQPEPLSLSGCLKENYADCLLSYSGLIGTVMTPNYLRSPKISVSPFCDCSSSGNSKEECDRFTEFFTDNACLRNAIQAFGNG chain 2: SSDVEPQMKRDRVRQKAAANTEKSGGRGRGERKRSRGRARSRDDRVKGQGRGCLLKEIHLNVTDLDLGYRTKEELIFRYCSGPCHDAETNYDKILNNLTHNKKLDKDTPSRTCCRPIAFDDDISFLDDSLEYHTLKKHSAKKCACV",Kd,[1],5.9 ± 1.5 µM
"Zebrafish (Danio rerio) mature GDNF (residues 90-236) (ligand, UniProt Q98TU0 90-235, looked up, Glial cell line-derived neurotrophic factor, Danio rerio, UniProt Q98TU0, mature GDNF, residues 90-236; 'zGDNF' is the construct in the original pK503.9 vector (Flag-tag only); Whether its Flag tag was removed is not clear; It appears as a mixture of a DTT-sensitive dimer and monomer, and it is glycosylated; also called zGDNF; zebrafish GDNF; source: Hi5 insect cells, baculovirus, secreted; …) SSDVEPQMKRDRVRQKAAANTEKSGGRGRGERKRSRGRARSRDDRVKGQGRGCLLKEIHLNVTDLDLGYRTKEELIFRYCSGPCHDAETNYDKILNNLTHNKKLDKDTPSRTCCRPIAFDDDISFLDDSLEYHTLKKHSAKKCACV",stoichiometry N,[2],2
B1,stoichiometry N,[3],2
